Test results taken from article PMC6421407, “Activation of GCN2 by the ribosomal P-stalk” (Proceedings of the National Academy of Sciences of the …, 2019).

What was measured:
[1] = target: human general control nonderepressible 2 (GCN2), full-length, StrepII-tagged (human) (UniProt Q9P2K8)
[2] = target: the molecule itself; test: SEC-MALS; purified GCN2 in solution; 392 kDa measured against 384 kDa theoretical for a homodimer

ribosomes purified from rabbit reticulocyte lysate (from UniProt G1SPK4 1-318; P19943 1-44; G1TT27 1-257) (complex)
EC50 of stimulation of eIF2α phosphorylation by GCN2, titration of ribosomes [1]: 25 nM | fold stimulation of eIF2α phosphorylation by GCN2, titration of ribosomes [1]: 20 fold

B1: human general control nonderepressible 2 (GCN2), full-length, StrepII-tagged (enzyme, UniProt Q9P2K8 1-1649, looked up)
chain: MAGGRGAPGRGRDEPPESYPQRQDHELQALEAIYGADFQDLRPDACGPVKEPPEINLVLYPQGLTGEEVYVKVDLRVKCPPTYPDVVPEIELKNAKGLSNESVNLLKSRLEELAKKHCGEVMIFELAYHVQSFLSEHNKPPPKSFHEEMLERRAQEEQQRLLEAKRKEEQEQREILHEIQRRKEEIKEEKKRKEMAKQERLEIASLSNQDHTSKKDPGGHRTAAILHGGSPDFVGNGKHRANSSGRSRRERQYSVCNSEDSPGSCEILYFNMGSPDQLMVHKGKCIGSDEQLGKLVYNALETATGGFVLLYEWVLQWQKKMGPFLTSQEKEKIDKCKKQIQGTETEFNSLVKLSHPNVVRYLAMNLKEQDDSIVVDILVEHISGVSLAAHLSHSGPIPVHQLRRYTAQLLSGLDYLHSNSVVHKVLSASNVLVDAEGTVKITDYSISKRLADICKEDVFEQTRVRFSDNALPYKTGKKGDVWRLGLLLLSLSQGQECGEYPVTIPSDLPADFQDFLKKCVCLDDKERWSPQQLLKHSFINPQPKMPLVEQSPEDSEGQDYVETVIPSNRLPSAAFFSETQRQFSRYFIEFEELQLLGKGAFGAVIKVQNKLDGCCYAVKRIPINPASRQFRRIKGEVTLLSRLHHENIVRYYNAWIERHERPAGPGTPPPDSGPLAKDDRAARGQPASDTDGLDSVEAAAPPPILSSSVEWSTSGERSASARFPATGPGSSDDEDDDEDEHGGVFSQSFLPASDSESDIIFDNEDENSKSQNQDEDCNEKNGCHESEPSVTTEAVHYLYIQMEYCEKSTLRDTIDQGLYRDTVRLWRLFREILDGLAYIHEKGMIHRDLKPVNIFLDSDDHVKIGDFGLATDHLAFSADSKQDDQTGDLIKSDPSGHLTGMVGTALYVSPEVQGSTKSAYNQKVDLFSLGIIFFEMSYHPMVTASERIFVLNQLRDPTSPKFPEDFDDGEHAKQKSVISWLLNHDPAKRPTATELLKSELLPPPQMEESELHEVLHHTLTNVDGKAYRTMMAQIFSQRISPAIDYTYDSDILKGNFSIRTAKMQQHVCETIIRIFKRHGAVQLCTPLLLPRNRQIYEHNEAALFMDHSGMLVMLPFDLRIPFARYVARNNILNLKRYCIERVFRPRKLDRFHPKELLECAFDIVTSTTNSFLPTAEIIYTIYEIIQEFPALQERNYSIYLNHTMLLKAILLHCGIPEDKLSQVYIILYDAVTEKLTRREVEAKFCNLSLSSNSLCRLYKFIEQKGDLQDLMPTINSLIKQKTGIAQLVKYGLKDLEEVVGLLKKLGIKLQVLINLGLVYKVQQHNGIIFQFVAFIKRRQRAVPEILAAGGRYDLLIPQFRGPQALGPVPTAIGVSIAIDKISAAVLNMEESVTISSCDLLVVSVGQMSMSRAINLTQKLWTAGITAEIMYDWSQSQEELQEYCRHHEITYVALVSDKEGSHVKVKSFEKERQTEKRVLETELVDHVLQKLRTKVTDERNGREASDNLAVQNLKGSFSNASGLFEIHGATVVPIVSVLAPEKLSASTRRRYETQVQTRLQTSLANLHQKSSEIEILAVDLPKETILQFLSLEWDADEQAFNTTVKQLLSRLPKQRYLKLVCDEIYNIKVEKKVSVLFLYSYRDDYYRILF
notes: General control nonderepressible 2 (GCN2), human, full length; Homodimer by SEC-MALS (392 kDa measured, 384 kDa theoretical); also called construct A; full-length GCN2
stoichiometry N [2]: 2
